Results taken from IntAct's records for PubMed 7758105.

B1: Tumor necrosis factor receptor superfamily member 1A (Homo sapiens), P19438 (parent)
chain: MGLSTVPDLLLPLVLLELLVGIYPSGVIGLVPHLGDREKRDSVCPQGKYIHPQNNSICCTKCHKGTYLYNDCPGPGQDTDCRECESGSFTASENHLRHCLSCSKCRKEMGQVEISSCTVDRDTVCGCRKNQYRHYWSENLFQCFNCSLCLNGTVHLSCQEKQNTVCTCHAGFFLRENECVSCSNCKKSLECTKLCLPQIENVKGTEDSGTTVLLPLVIFFGLCLLSLLFIGLMYRYQRWKSKLYSIVCGKSTPEKEGELEGTTTKPLAPNPSFSPTPGFTPTLGFSPVPSSTFTSSSTYTPGDCPNFAAPRREVAPPYQGADPILATALASDPIPNPLQKWEDSAHKPQSLDTDDPATLYAVVENVPPLRWKEFVRRLGLSDHEIDRLELQNGRCLREAQYSMLATWRRRTPRREATLELLGRVLRDMDLLGCLEDIEEALCGPAALPPAPSLLR
partner: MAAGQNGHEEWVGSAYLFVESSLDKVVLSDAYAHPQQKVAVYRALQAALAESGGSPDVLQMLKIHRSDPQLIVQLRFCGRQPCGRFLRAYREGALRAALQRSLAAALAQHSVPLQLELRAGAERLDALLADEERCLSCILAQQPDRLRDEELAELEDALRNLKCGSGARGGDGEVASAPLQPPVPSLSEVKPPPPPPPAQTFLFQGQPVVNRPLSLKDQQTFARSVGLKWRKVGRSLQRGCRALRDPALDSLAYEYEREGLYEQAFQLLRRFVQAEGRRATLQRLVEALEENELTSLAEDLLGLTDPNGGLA

Variants of: B1
Conditions: with tradd_human TRADD

Row | Variant | effect of a mutation on the interaction
1 | K372A;F374A;R376A | decreasing interaction
